In paper PMC8771563, “Mitochondrion-targeted supramolecular “nano-boat” simultaneously inhibiting dual energy metabolism for tumor selective and synergistic chemo-radiotherapy” (Theranostics, 2022):
Peptide text beside a SMILES is read from it. * marks the point of attachment. X1 = O=C(c1nn(Cc2ccc(Cl)cc2Cl)c2ccccc12)*; Cyclenylacetyl = O=C(CN1CCNCCNCCNCC1)*; NBD = O=[N+]([O-])c1ccc(*)c2nonc12; βAla = NCCC(=O)O

Experiments:
MCF-7 cells [1] = experiment: CCK-8 cytotoxicity assay; format: cell-based; details: 200 μM, 48 h
Procedure: Circular dichroism (CD) spectra
The secondary structure of LND- Pep-cyclen hydrogel and NBD- Pep-cyclen hydrogel were monitored by a circular dichroism (CD) spectrophotometer (BioLogic, MOS-450, France) system. The self-assembled hydrogel was added into a 0.1 cm quartz spectrophotometer cell (20- C/Q/0.1), then the CD signals were recorded in the 180- 280 nm scanning wavelength range. The final spectrogram was obtained after subtracting the PBS solvent background.
Mammary carcinoma cancer cells (MCF-7 and 4T1), and mouse fibroblast cells normal cells (L929) were all maintained in our lab. These cells were cultured in DMEM (MCF-7) and RPMI 1640 medium (4T1 and L929) supplemented with 10%
FBS and 1% penicillin-streptomycin in a humidified incubator maintained at 37 °C and 5% CO2, respectively.
Cytotoxicity and apoptosis analysis
All kinds of cells were seeded in 96-well plates at a density of 5000 cells per well. After 24 h incubation, the cells were treated with a series of pre-determined doses of LND-Pep-cyclen nanofibers, free LND, free cyclen, mixture of free LND and cyclen molecules for 48 h. After adding 10 μL CCK-8 solution to each well, the cells were incubated at 37 °C for another 4 h. OD450 was measured using a Thermo Scientific™ Varioskan™ LUX (Thermo, CA, USA), and then the cell viability values

MCF-7 cells [2] = experiment: Annexin V-FITC/PI apoptosis flow cytometry; format: cell-based; details: 50 μM, 48 h, Figure 2D
Procedure: of different groups at different doses were calculated. For apoptosis assay, MCF -7 and L929 cells were cultured in 6-well plates at a density of 2 × 10^5 cells per well, then were treated with different forms of drug for 48 h. Afterwards, cells were harvested at 1000 rpm for 5 min and then washed with ice-cold PBS twice. Upon being suspended in 100 μL 1× binding buffer, the samples were incubated with 5 μL of FITC-Annexin- V and 5 μL of PI for 15 min at room temperature in the dark. Finally, the cells were added in 100 μL 1× binding buffer blending gently and analyzed by flow cytometry (Becton Dickinson, NJ, USA) within 1 h.
MCF-7 cancer cells and L929 normal cells with a density of 1×10^5 cells/mL were cultured in confocal chambers and 6-well plates at 37 °C, respectively. After 70% confluence, the cells were treated with fresh medium which contained the same concentrations of LND-Pep-cyclen nanofibers, LND, cyclen, mixture of free LND and cyclen molecules for 12 h. Then, followed by washing twice with PBS and incubated with 1 mL DCFH-DA (10 μM) at 37 °C for 30 min in the dark. The cells in 6-well plates were harvested, washed, re- suspended and then loaded on flow cytometry for quantitate analysis. […] Excitation at 488 nm and signal collection at 525 ± 10 nm for DCFH-DA fluorescence. […]

MCF-7 cells [3] = experiment: MMP depolarization (JC-1 probe, CLSM); format: cell-based; details: 50 μM, 24 h, serum-free medium, JC-1 10 µg/mL 30 min
Procedure: MCF-7 cancer cells with a density of 2 × 10^5 cells/mL were cultured in confocal cuvettes under 5% CO2 at 37 °C. After the number of anchorage-dependent cells reached up to 70%, the cells were incubated with a replaceable serum-free medium containing different forms of the drug (50 μM) for 24 h. This was followed by washing away the drug that was not absorbed and staining with 1 mL JC-1 probe (10 µg/mL) for 30 min in dark. After washing with PBS for three times, the cells were imaged by CLSM to examine the fluorescence intensity of the J-monomers and the J-aggregates.

MCF-7 cells [4] = experiment: ATP content (luminescent assay); format: cell-based; details: 50 μM, 24 h, per cell, control = 100%, mean n = 5
Procedure: MCF-7 cells with a density of 5000 cells/well were seeded in 96-well plates, and then were cultured at the incubators for 24 h at 37 °C under 5% CO2. After co-incubation with different forms of drugs for another 24 h, the growth medium was removed, and the wells were washed twice with PBS. The cell number of each group was counted before all the measurements. After dissociation and centrifugation, the liquid supernatant was collected for the following analysis of the HK activity and the lactate content. The hexokinase (HK) activity of the cells in each group was determined by the OD340 absorbance according to the specification of the HK activity assay kit (Solarbio, BC0745). The intracellular lactate content was detected using an L-lactate assay kit (Promega, J5021) and depended on the OD565 absorbance. A luminescent ATP detection assay kit (Abcam, ab113849) was used to analyze the quantity of ATP. All the data were shown as the mean value in per cell of each group.

MCF-7 cells [5] = experiment: Colony formation assay / radio-sensitization; format: cell-based; details: 10 μM, 12 h, γ-rays 0-6 Gy, multi-target single-hit model, n = 3
Procedure: MCF-7 cells (1,000/well) were seeded in six-well plates and incubated with different forms of drugs at a concentration of 10 μM after 12 h. Subsequently, they were irradiated with γ-rays at doses of 0, 2, 4, and 6 Gy at 36 h. Following this, the cells were continuously cultured with a fresh drug-free medium in an incubator for another 5-8 days. The fixed colonies were then stained using crystal violet (0.25%, ethanol) for subsequently counting the number of colonies, and evaluating the colony inhibition ability of each treatment. Only colonies containing >50 cells were counted and survival curves were plotted with Origin. Furthermore, the SER value was used to compare the efficiencies of the different drugs in improving the sensitivity of the MCF-7 cells to radiotherapy. The SER was determined by a classical multi-target single-hit model using the following equation:
S = 1 - (1 - e ^-D/D0)^n (1)
where S is the survival fraction, D is the radiation dose, D0 is the mean lethal dose, and n is the extrapolation number. D0 and n were calculated using the“GraphPad Prism” software (version 8.0). The final survival fraction curve of each group was obtained by a nonlinear fitting using Origin 2018, and the SER was expressed using the following formulae:
SER = Dq (control group)/Dq (treated group (2)

MCF-7 tumors = experiment: In vivo anti-tumor evaluation; details: MCF-7 tumor bearing nude mice, single i.v. injection, 5 mg/kg LND equivalent, day 14, vs PBS control
Procedure: (§1) MCF-7 cells (1×10^7 cells per mouse) were subcutaneously injected into the breast regions of six-week-old nude mice to establish the tumor model. When the tumor volume grew to approximately 100 mm^3, all the mice were randomly divided into eight groups with seven mice in each group. Except for the control groups, all groups were intravenously administrated with 200 μL of LND-Pep-cyclen nanofibers, free LND, and mixture of free LND and free cyclen (5 mg/kg LND equivalent and 2 mg/kg cyclen equivalent), respectively. After 12 hours, the mice in the chemo-radiotherapy group were exposed to 6 Gy γ-rays. To evaluate the therapeutic efficacy, the tumor size and the body weight were recorded daily. The tumor volumes were measured using a vernier caliper and then calculated using the formula: (width^2×length)/2. On the 14th day, all the mice were euthanized when the tumor volume in the PBS control group reached approximately 1500 mm^3. The tumors and normal tissues including heart, liver, spleen, lung and kidney in each group were carefully collected, photographed, and then fixed in 4% form aldehyde for histological analysis.

[6] = H&E histology of major organs after treatment; format: in vivo, nude mice; details: single administration, compared with control group (Figure S22)
Procedure: as §1

[7] = Bio-compatibility evaluation (hematology, blood biochemistry); format: in vivo; details: BALB/c mice, 20 mg/kg i.v. at day 0, 7, 14, 21 (four injections), n = 5
Procedure: Cambridge, UK), anti-Bcl-2 (1:1000, Abcam, Cambridge, UK), anti-smac and anti-GAPDH antibody. After washing with 1 ×TBST, membranes were incubated with corresponding secondary antibody for 1 h at room temperature. The membranes were washed 3 times by 1 ×TBST and illuminated by an enhanced chemiluminescent (ECL) kit (Pierce™ ECL Western Blotting Substrate, Thermo Scientific, Rockford, IL, USA) on a Bio- Rad film (Sigma-Aldrich, St. Louis, MO, USA).
Bio-compatibility evaluation
Six-week-old BALB/c mice were randomly assigned to two groups and intravenously administrated with 200 μL of LND-Pep-cyclen nanofibers (20 mg/kg) and PBS at 0 day, 7 day, 14 day, 21 day. All the mice were sacrificed at the last time point, followed by collecting the whole body blood for the hematology and blood

MCF-7 cells [8] = format: cell-based
Procedure: To confirm our hypothesis, we subsequently used a fluorescent molecule of 7-nitrobenzo-2-oxa-1,3-diazole (NBD), to replace LND, resulting in another peptide conjugate of NBD-GFFYK-cyclen (NBD-Pep-cyclen). […] Therefore, the NBD-Pep-cyclen conjugate could be very qualified as a substitute for LND-Pep-cyclen to verify its mitochondrial targeting performance. After incubation with MCF-7 cells for 4 hours, the cellular distribution of the NBD-Pep-cyclen nanofibers was investigated. […] The endocytosis mechanism for the cellular uptake was investigated using several well-established endocytotic inhibitors. […] In contrast, the addition of NaN3 (an inhibitor of energy-dependent endocytosis) and chlorpromazine (an inhibitor of clathrin-mediated endocytosis) reduced the uptake to less than 50%. […]
Figure S9 (A) CLSM images of MCF-7 cells treated with NBD-Pep-cyclen
nanofibers in the absence and presence of endocytotic inhibitors. […]

MCF-7 and L929 cells = experiment: Flow cytometry of NBD accumulation in cancer versus normal cells; format: cell-based; details: 50 μM, 4 h, flow cytometry MFI, n = 3

O=C(O)c1nn(Cc2ccc(Cl)cc2Cl)c2ccccc12 [LND, Lonidamine]
Cell survival rate (MCF-7 cells [1]): 50%
Cells in lower right quadrant (PI / Annexin V-FITC plot); early apoptosis rate (MCF-7 cells [2]): 1.45%
MMP depolarization (MCF-7 cells [3]): very limited effect
ATP content, of control (MCF-7 cells [4]): 60%
SER (sensitization enhancement ratio) (MCF-7 cells [5]): 1.78
Tumor growth / final tumor volume, chemotherapy only (MCF-7 tumors): barely inhibit the tumor growth

O=C(CN1CCNCCNCCNCC1)NCCCC[C@H](NC(=O)[C@H](Cc1ccc(O)cc1)NC(=O)[C@H](Cc1ccccc1)NC(=O)[C@H](Cc1ccccc1)NC(=O)CNC(=O)c1nn(Cc2ccc(Cl)cc2Cl)c2ccccc12)C(=O)O [LND-Pep-cyclen] (X1-GFFYK(Cyclenylacetyl)-OH)
Histological changes in liver, spleen, kidney, heart, lung (H&E) [6]: no appreciable inflammatory damage and tissue damage
Liver and kidney indices (ALT, AST, TBIL, BUN) ([7]; vs control): normal with no relevant difference
Blood routine values ([7]; vs untreated control): no apparent variations

O=C(CCNc1ccc([N+](=O)[O-])c2nonc12)NCC(=O)N[C@@H](Cc1ccccc1)C(=O)N[C@@H](Cc1ccccc1)C(=O)N[C@@H](Cc1ccc(O)cc1)C(=O)N[C@@H](CCCCNC(=O)CN1CCNCCNCCNCC1)C(=O)O [NBD-Pep-cyclen] ({NBD-βAla}-GFFYK(Cyclenylacetyl)-OH)
Cellular uptake in presence of NaN3 (MCF-7 cells [8]): less than 50%
Cellular uptake in presence of chlorpromazine (MCF-7 cells [8]): less than 50%
Cellular uptake in presence of nystatin (MCF-7 cells [8]): barely affected
Cellular uptake in presence of wortmannin (MCF-7 cells [8]): barely affected
NBD fluorescence intensity in MCF-7 cells relative to L929 cells (MCF-7 and L929 cells): more than two-folds
